From patent publication US20110052582A1 (Hoffmann-La Roche, published 2011)
Substitutions are numbered along the chain they refer to.

T1: extracellular-domain-(ECD)-comprising fragment of human CDCP1 of SEQ ID NO: 30 (human, UniProt Q9H5V8 30-663)
T1 construct: also called CDCP1 ECD; CDCP1-ECD
T1 sequence: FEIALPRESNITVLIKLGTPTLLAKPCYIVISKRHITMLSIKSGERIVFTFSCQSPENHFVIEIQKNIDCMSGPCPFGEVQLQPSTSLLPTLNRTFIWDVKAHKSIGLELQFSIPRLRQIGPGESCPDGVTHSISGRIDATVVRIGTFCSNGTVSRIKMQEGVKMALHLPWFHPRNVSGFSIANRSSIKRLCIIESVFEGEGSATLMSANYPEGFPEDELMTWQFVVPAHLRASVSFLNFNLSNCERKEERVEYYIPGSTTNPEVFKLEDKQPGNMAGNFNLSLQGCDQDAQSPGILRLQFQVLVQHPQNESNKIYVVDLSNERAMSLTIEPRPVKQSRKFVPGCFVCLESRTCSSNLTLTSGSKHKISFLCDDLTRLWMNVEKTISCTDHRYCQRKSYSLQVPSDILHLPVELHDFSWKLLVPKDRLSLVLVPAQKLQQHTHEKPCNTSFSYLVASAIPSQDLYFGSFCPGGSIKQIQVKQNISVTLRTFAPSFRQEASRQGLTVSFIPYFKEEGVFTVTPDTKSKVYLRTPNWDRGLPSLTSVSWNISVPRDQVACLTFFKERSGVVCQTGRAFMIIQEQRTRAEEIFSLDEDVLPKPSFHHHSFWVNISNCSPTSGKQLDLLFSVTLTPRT

T2: Soluble CDCP1 extracellular domain (CDCP1-ECD) (SEQ ID NO:30) fused to Streptavidin Binding Protein (SBP) (human, UniProt Q9H5V8 30-663)
T2 construct: also called SBP-CDCP1-ECD
T2 sequence: T1 sequence

T3: Human CDCP1 (CUB domain containing protein 1) on DU-145 cells (human, UniProt Q9H5V8 30-836)
T3 sequence: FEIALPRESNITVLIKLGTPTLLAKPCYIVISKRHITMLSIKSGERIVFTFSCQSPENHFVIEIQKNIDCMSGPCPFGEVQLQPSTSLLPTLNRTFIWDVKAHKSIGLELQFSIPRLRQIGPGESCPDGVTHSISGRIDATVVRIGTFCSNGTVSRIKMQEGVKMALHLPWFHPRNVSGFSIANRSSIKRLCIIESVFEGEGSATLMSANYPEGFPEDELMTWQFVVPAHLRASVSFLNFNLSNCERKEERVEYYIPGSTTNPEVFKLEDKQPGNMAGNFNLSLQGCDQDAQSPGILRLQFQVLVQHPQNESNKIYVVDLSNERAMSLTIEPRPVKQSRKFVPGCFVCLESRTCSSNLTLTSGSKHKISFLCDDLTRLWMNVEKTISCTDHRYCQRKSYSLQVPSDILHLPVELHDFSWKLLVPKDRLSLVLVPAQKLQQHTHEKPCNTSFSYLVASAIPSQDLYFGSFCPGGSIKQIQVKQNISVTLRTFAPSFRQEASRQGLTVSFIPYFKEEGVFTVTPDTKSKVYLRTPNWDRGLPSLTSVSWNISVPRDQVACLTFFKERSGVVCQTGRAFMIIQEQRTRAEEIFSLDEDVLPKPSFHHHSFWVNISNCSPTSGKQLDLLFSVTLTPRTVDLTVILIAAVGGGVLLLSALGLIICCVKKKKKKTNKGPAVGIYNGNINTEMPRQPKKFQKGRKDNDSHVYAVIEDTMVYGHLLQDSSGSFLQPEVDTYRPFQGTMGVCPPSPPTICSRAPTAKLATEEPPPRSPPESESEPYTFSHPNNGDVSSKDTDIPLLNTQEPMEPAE

B1: Humanized CUB4 Antibody No. 69 (antibody, IgG1, V domains shown)
VH: EVQLVESGGGLVQPGGSLRLSCAASGFTFNSYGMSWVRQAPGKGLEWVATISSGGSYKYYVDSVKGRFTISRDNAKNSLYLQMNSLRAEDTAVYYCARHPDYDGVWFAYWGQGTLVTVSS
VL: EIVLTQSPATLSLSPGERATMSCSVSSSVFYLHWYQQKPGQAPRLWIYDTSKLASGIPARFSGSGSGTDFTLTISSLEPEDFAVYYCQQWNSNPPTFGGGTKVEIK
notes: Human constant region; also called Antibody 69; hHC4-H / hLC-L2
B2: Humanized CUB4 Antibody No. 135 (antibody, IgG1, V domains shown)
VH: B1 VH
VL: DIQMTQSPSSLSASVGDRVTITCSVSSSVFYVHWYQQKPGKAPKLLIYDTSKLASGVPSRFSGSGSGTDFTFTISSLQPEDIATYYCQQWNSNPPTFGGGTKVEIK
notes: Human constant region, preferably IgG1; also called Antibody 135; hHC4-H / hLC-e
B3: Humanized CUB4 Antibody No. 47 (antibody, human IgG1, V domains shown)
VH: B1 VH
VL: B1 VL with M21L, S24R, V25A
notes: Only variable domains are tied to the antibody; also called humanized anti-CDCP1 antibody 47; hHC4-H / hLC-K
B4: Humanized CUB4 Antibody No. 80 (antibody, IgG1, V domains shown)
VH: B1 VH
VL: B1 VL with S24G, V25A, Q41L, A59D, S76R
notes: Only variable domains are tied to the antibody; Human constant region, preferably IgG1; also called hHC4-H / hLC-M
B5: chimeric (chHC4) CUB4 antibody comprising human constant region and mouse VH and VL (antibody, human IgG1, V domains shown)
VH: EVQLVESGGDLVKPGGSLKLSCAASGFTFNSYGMSWVRQTPDKRLEWVATISSGGSYTYYPDSVKGRFTISRDNAKNTLYLQMSSLKSEDTAMYYCARHPDYDGVWFAYWGQGTLVTVSA
VL: QIVLTQSPAIMSASPGEKVTMTCSVSSSVFYVHWYQQKSGTSPKRWIYDTSKLASGVPARFSGSGSGTSYSLTISSMEAEDAATYYCQQWNSNPPTFGGGTKLEIK

Biological target: T1, extracellular-domain-(ECD)-comprising …
Assay: SPR (Biacore T100), antibody captured, CDCP1 ECD as analyte, 25 C, Langmuir 1:1
Protocol: After conjugation, different anti-CDCP1 antibodies were injected at 25° C. at a flow rate of 5 μL/min, followed by a dilution series (0 nM to 1000 nM) of CDCP1 ECD at 30 μL/min. As running buffer for the binding experiment PBS/0.1% BSA was used. The chip was then regenerated with a 60s pulse of 10 mM glycine-HCl, pH 2.0 solution.
Calculation of thermodynamic parameters (KD, binding constant) and kinetic parameters (kₒₙ rate, koff rate) were calculated using a Langmuir 1:1 binding model.

Kd	koff	kon	t½ diss.	Binder
2.55 nM	0.00052 s⁻¹	210000 M⁻¹ s⁻¹	22.1 min	B1
8.3 nM	0.0011 s⁻¹	140000 M⁻¹ s⁻¹	10.3 min	B2
3.77 nM	0.00075 s⁻¹	200000 M⁻¹ s⁻¹	15.4 min	B3
3.53 nM	0.00088 s⁻¹	250000 M⁻¹ s⁻¹	13.1 min	B4

Biological target: T2, Soluble CDCP1 extracellular domain …
Assay: ELISA on captured SBP-CDCP1-ECD, ratio relative to chimeric CUB4 (chHC4)
How it was run: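 Streptavidin plates coated overnight at 2–8° C with SBP-CDCP1-ECD HEK293 supernatant (1:15–1:40). Antibodies, undiluted or 12-step dilution, bound 90 min at room temperature; HRP anti-human IgG 1 h, ABTS read at 405/492 nm, signal expressed relative to chimeric chHC4 reference.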

relative binding ratio	Binder
0.69	B1
0.47	B2
0.46	B3
0.56	B4

Biological target: T3, Human CDCP1 (CUB domain containing …)
Assay: cell-based or functional assay

Percent (%) stimulation of CDCP1 phosphorylation in DU-145 cells (Western blot, densitometry)	Binder
112%	B1
72%	B2
96%	B3
133%	B4
100%	B5
